# Results taken from the DeepSol protein solubility set.
# Experiment: soluble on expression in E. coli; label from the status in PepcDB or PDB records
row,Sequence,soluble on expression in E. coli
1,LAAGQLADLVVLSKDYFSVAEEEIKGIESVLTVVDGKVVYAAGHFSPLAPPPIPVLPEWSPVVKVPGHYRSAPPATAKIGAMVQMHQCCGSCGVHGHQHDIARKSSIPVSDEQAFWGVLGCSCFA,not soluble
2,GSHMDASKIDQPDLAEVANASLDKKQVIGRISIPSVSLELPVLKSSTEKNLLSGAATVKENQVMGKGNYALAGHNMSKKGVLFSDIASLKKGDKIYLYDNENEYEYAVTGVSEVTPDKWEVVEDHGKDEITLITCVSVKDNSKRYVVAGDLVGTKAKK,soluble
3,MGSDKIHHHHHHMNLKTSIENNVHIRAVAAAADELGLETYIVGGYVRDLIMDRDNKDIDFVCLGSGIELAQKVAANMGEHVQVHIFKTFGTAMINAGDTELEFVGARKESYDFNSRKPTVESGTLEDDQLRRDFTINALAICLNKARFGELVDPFDGVSDIKRKIIKTPQDALLTFSDDPLRMIRAVRFATQLNFDIEAATFQAIATNKDRLSIVSMERISQELNKIISAPVPSYGFKLLYISGVLKDIFPEFVALHGVESIDNKSHKDNFYHTLQVLDNVAKVSDDLWLRWAAILHDIAKPLTKRFVERIGWTFHGHEDKGARMVPAIFRKLRLPLNEKMDMVAKLVRLHLRPISLVKDEVTDSAVRRLMFEAGEHFSDLMILCRADVTSKNNNKVKRYLENFDKVERKVIEVEEKDQQRNFQPVVSGEDIMKTFDIKPGKVIGDIKADLIEAILEGDVQNEYEILFPFMINLAEKKYGLVKPETH,not soluble
4,MGSDKIHHHHHHMDIKQLQYLCNLEKERHFGRAAEASFVSQPTLSMRLKNLERELDLALINRGNNFEGFTAEGERVLAWAREIVSVYQGLKLEVASLKRGVSGVLRIGAVPQSSIALSSLLAAVNKEYPQLDFQISLFSADQLLEALNAHSVDVGIGFFEFSTLQELHFQASPLTEQGVDLLFHPHHFPQLVGDAPLALDALSDVPLCLAEASRYFRRYLDSHFREMGVSPWVKVESASVLQLIQSVYVGLGCGIVPHGSLIPEMTPALTLRPLQFPPMRRQPAVVIAQAGRATALAQNFFDVAQEWLQAQS,not soluble
5,MVQESIISSFRGKLENDPSKSTSLATVETLLEVLDRSRATTVAEFQNELNQVVAALEKTDYSSTSIRSAADLFTRFTSLAPAALLDQEDFSQVLDLYRQRARSFIKNVRGSRAKISKCARLFFTHHMNILTHSYSKVVLETILDAHKSGYHLHVWVTESQPDASGKLVFEELKKNGVPTTLVLDSCVGYVMERIQAVLVGAEGVMETGGIINKIGTVNVCIIAKSRHVPVYVCAETIKFVREFPLNQADIPQEFKYRTSVIERNNLELEHPDVDYTAPEFLTLIITDVGAMKPEAVGEELIKMYI,not soluble
6,MGSDKIHHHHHHMDYMKKLLGAEDLFDRDEPLKGVRVLEVCSVVLGPAATDYLAEFGAEVIKFEARRGDQMRYVTPYAYFWRNLSPGLLEQNHNKYWVGMHLGHPKARELFYEFVKRSDVVVDNLTPGRLSKWGISYDRLREINPRIIQLHVSGFGSWGPYTGRTSYDAIAQSEGGLAYITGFEGRGPLKSGVWIADWTTALMCAVAIVAALNYRERTGEGQYIDYSQVENVIRFLDWTWTYVDMTGENRERVGNRDLAICPSDLFDCKDGWVAIVAFSEEEFKGLCQAMGRMDLYEKFADPLERLKDENARLILKEIAEWAKTKTVKDVEELADKYGFAASHVIEVDEAYYSEHLRERGAIMAYDDPLYGEFVEPCYPPRMETPSRLKWGARPLGFDNEFVLTKYLGLSMDEIEQLYEEGVIYRWNPDVKPQCPPPDWDGKKGLKFP,not soluble
7,MIYINLYNSNQMTKGILIAGTHSGVGKTTVSMGIMAALKHRQLKVQPYKVGPDYIDPSHHTAICGRPSRNLDTYLMGTEGVRQTVARTSADADIAVVEGVMGLFDGIDSTEVASSAHVAKTLDIPVILVINVHGMSRSAAALLKGYSEFDPEVRVAGVILNQVGSPRHAELVKNSLPGNIPIIGTIPRRKDIEVPSRHLGLYMAHEK,not soluble
8,GLGDAGSTPTTSAADGVPSDTSLTGSGGLHLPQQLEQYRGDIMDAAKATGVPPSVIAGQIWAESRGQLNAATTNVNGKADAGLMQVNADTFKSLQQQNPGLLGNDVNDSHTNIMAGALYLRDQNKEFGDMGAALRAYNSGPDKVNKADLSDTGGVGGSSYPADVLNFAKIIESGQGNLPA,not soluble
9,MANNVTFWFDVSCPFCWITSRWIKEVEKVRDISVTWVPMSLSVLNDGRDELPQDYKDKMKANWGPARVFAAVATEQPDRVDALYTAMGTRIHNQGEGGKQGYAAYDAIIADALEDVGLPASYAAVANTDTWDNALAAFHATAMDAVGNDVGTPVVKLGDTAFFGPVLTRIPRGEEAGMLFDASFQLAAYPHFFEIKRTRTESPQFD,not soluble
10,MRAIRVHEVGGPEVLRLEELPVPEPGPGEVLVRLLAIGVNFIDTYKRKGLYPVPAPFTLGEEGAGVVEKVGEGVVGVRPGDRVAFANVQGAYAEYLVVPAERLVPVPEGLDPKLAAAALLQGMTVHYLLKSTYPVAPGDQVLVHAGAGGVGQLLIQWAKRLGATVYATASTEEKRGLCLQAGADYALPYEGFAEAVKALSGGGVDVVYDGVGKDTFLGSLAALRPRGMLVLFGQSSGPVPPQDPQILNRMGSLFLTRPTLHHYTASRKELLFRPGEVFRGVLKGWLKVRIGAEFPLENARKGPRGPRGPKDHGQGPPPALGRGNRAHFSGSGVVYYGPFQGLM,soluble
11,MKTNREQEIYVERSFKPNNSTIQNLMDIERFILPHTSTSGVARLKMRVISWVGLQFYNY,soluble
12,GQSGPLPKPSLQALPSSLVPLEKPVTLRCQGPPGVDLYRLEKLSSSRYQDQAVLFIPAMKRSLAGRYRCSYQNGSLWSLPSDQLELVATGVFAKPSLSAQPGPAVSSGGDVTLQCQTRYGFDQFALYKEGDPAPYKNPERWYRASFPIITVTAAHSGTYRCYSFSSRDPYLWSAPSDPLELVVT,soluble
13,ADEVAQTLAKVLTESSMPRENLLLSSFSHDVIRALYQHCEGYRLGVLSEFFTKKDGLLLDEVKAYSCNLNINWVRSRQIIKLQEAGYKVMCYTVNNPNKLKHLPQLDGIFSDHPKRFMQ,not soluble
14,MNREEMTLLGFEIVAYAGDARSKLLEALKAAENGDFAKADSLVVEAGSCIAEAHSSQTGMLAREASGEELPYSVTMMHGQLHLMTTILLKDVIHHLIELYKRGAK,soluble
15,MVDIPPPFDLACITKKPITKSSPSLLIESDSPDKYKKKKSSFKRFLALTFKKKTENKLHVDVNVSSSRSSSESSYHGPSRILEVDRRSLSNSPQLKSRTGKLRASESPSSLIFYRDGKRKGVPFSRTVSRVESFEDRSRPPFLPLPLTKPRSISFPSADTSDYENIPAMNSDYENIQIPPRRPARAGAFTKLFEDQSRALSTANENDGYVDMSSFNAFESKQQSADQDAESAYTEPYKVCPISSAAPKEDLTSDEEQRSSEEEDSASRDPSVTHKVEGQSRALVIAQELLSSEKAYVEMLQHLNLDFHGAVMRALDDMDHEGRDTLAREELRQGLSELPAIHDLHQGILEELEERLSNWESQQKVADVFLAREQGFDHHATHILQFDRYLGLLSENCLHSPRLAAAVREFEQSVQGGSQTAKHRLLRVVQRLFQYQVLLTDYLNNLCPDSAEYDNTQGALSLISKVTDRANDSMEQGENLQKLVHIEHSVRGQGDLLQPGREFLKEGTLMKVTGKNRRPRHLFLMNDVLLYTYPQKDGKYRLKNTLAVANMKVSRPVMEKVPYALKIETSESCLMLSASSCAERDEWYGCLSRALPEDYKAQALAAFHHSVEIRERLGVSLGERPPTLVPVTHVMMCMNCGCDFSLTLRRHHCHACGKIVCRNCSRNKYPLKYLKDRMAKVCDGCFGELKKRGRAVPGLMRERPVSMSFPLSSPRFSGSAFSSVFQSINPSTFKKQKKVPSALTEVAASGEGSAISGYLSRCKRGKRHWKELWFVIKGKVLYTYMASEDKVALESMPLLGFTIAPEKEEGSSEVGPIFHLYHKKTLFYSFKAEDTNSAQRWIEAMEDASVL,soluble
16,MLIFEGKEISTDSEGYLKETTQWSEALAVAIAANEGIELSAEHWEVVRFVREFYLEFNTSPAIRMLVKAMANKFGEEKGNSRYLYRLFPKGPAKQATKIAGLPKPVKCI,not soluble
17,MGSDKIHHHHHHMSFSLRNYQVELILDIKKSMLAGHRKIMVQSPPRSGKTVCMAHIAKNATNKQKTVLFFSHRKEINEQVFETFSRAGVDMGLVYIGTVGSIVRKLGKLPVPTLVLVDEAHHIKASQYQQILKYYHQAVQLFFTGTPIRLDGSGFDDMADDLVVGKSILWLQEHGNISEFDYYSINLLDQAKLRKRQGEYTNQSIDDSFDFSNSTAIT,not soluble
18,HFRRSLRHIFRRRSAGELPAAHTAAAPGTPGEAAETPARPGLAKKFLPWSLAREPPPEALKEAVLRYSLADEASMDSGARWQRGRLALRRAPGPDGPDRVLELFDPPKSSRPKLQAACSSIQEVRRCTRLEMPDNLYTFVLKVKDRTDIIFEVGDEQQLNSWMAELSECTGRGLESTEAEMHIPSALEPSTSSSPRGSTDSLNQGASPGGLLDPACQKTDHFLSCYPWFHGPISRVKAAQLVQLQGPDAHGVFLVRQSETRRGEYVLTFNFQGIAKHLRLSLTERGQCRVQHLHFPSVVDMLHHFQRSPIPLECGAACDVRLSSYVVVVSQPPGSCNTVLFPFSLPHWDSESLPHWGSELGLPHLSSSGCPRGLSPEGLPGRSSPPEQIFHLVPSPEELANSLQHLEHEPVNRARDSDYEMDSSSRSHLRAIDNQYTPL,soluble
19,MGSDKIHHHHHHMNNKEIFEELATLARQPAIWFAARSFYGHGGNQRPDNSRRLLRVLAETDNNLTAGAIADILAIRPASVTQIIKKLENDEYIQRVRDESDARVVRVKITSKGRKQLELLEDKQSDFQTELFDVFDDDERQRFGESLRKLNEHVMSDEYLDNMRSKMDKHMRFGFDHFVNVSNARKFHENQTGYLKKMRQHQQQSPFNDEDNEGI,not soluble
20,MRGSHHHHHHTDPALRANSLFASTARGLEELLKTELENLGAVECQVVQGGVHFKGDTRLVYQSLMWSRLASRIMLPLGECKVYSDLDLYLGVQAINWTEMFNPGATFAVHFSGLNDTIRNSQYGAMKVKDAIVDAFTRKNLPRPNVDRDAPDIRVNVWLHKETASIALDLSGDGLHLRGYRDRAGIAPIKETLAAAIVMRSGWQPGTPLLDPMCGSGTLLIEAAMLATDRAPGLHRGRWGFSGWAQHDEAIWQEVKAEAQTRARKGLAEYSSHFYGSDSDARVIQRARTNARLAGIGELITFEVKDVAQLTNPLPKGPYGTVLSNPPYGERLDSEPALIALHSLLGRIMKNQFGGWNLSLFSASPDLLSCLQLRADKQYKAKNGPLDCVQKNYHVAESTPDSKPAMVAEDYTNRLRKNLKKFEKWARQEGIECYRLYDADLPEYNVAVDRYADWVVVQEYAPPKTIDAHKARQRLFDIIAATISVLGIAPNKLVLKTRERQKGKNQYQKLGEKGEFLEVTEYNAHLWVNLTDYLDTGLFLDHRIARRMLGQMSKGKDFLNLFSYTGSATVHAGLGGARSTTTVDMSRTYLEWAERNLRLNGLTGRAHRLIQADCLAWLREANEQFDLIFIDPPTFSNSKRMEDAFDVQRDHLALMKDLKRLLRAGGTIMFSNNKRGFRMDLDGLAKLGLKAQEITQKTLSQDFARNRQIHNCWLITAAGLCGR,soluble
